How the values were obtained:
[1] = biological target: T1, M 2-EGFR (wild-type N-terminus FLAG-tagged EGF receptor) (human, UniProt P00533 25-1210); test: Scatchard plot (B/F specific against Bound) of 125I-EGF binding to BaF/3 cells expressing wt EGFR, cold ligand titration, fitted with Radlig; first (high affinity) of two sites
T1 construct: whole, on cells; Stably expressed on BaF/3 cells; also called wt EGFR; wild type EGFR; not shown: N-terminal FLAG tag

[2] = biological target: T1, M 2-EGFR (wild-type N-terminus …); test: Scatchard plot (B/F specific against Bound) of 125I-EGF binding to BaF/3 cells expressing wt EGFR, cold ligand titration, fitted with Radlig; second (low affinity) of two sites
M 2-EGFR E 21A [3] = biological target: T2, M 2-EGFR E 21A (human, UniProt P00533 25-1210); test: Scatchard plot (B/F specific against Bound) of 125I-EGF binding to BaF/3 cells expressing E21A EGFR, cold ligand titration, fitted with Radlig; first (high affinity) of two sites
T2 construct: whole, on cells; Transiently expressed in 293 cells and stably expressed in BaF/3 cells; also called Glu 21Ala; not shown: N-terminal FLAG tag
Protocol: This was determined in total cell lysates by sequential immunoblotting with anti-phosphotyrosine (top) or anti-EGFR (bottom) antibodies. […] Cross-linking of the EGFR via the extracellular portion was performed at 37° C. to maximize dimer yield. Samples were analyzed by SDS-PAGE on 3-8% gradient gels and immunoblotting with anti-EGFR antibodies.
The isolation and characterisation of stably transfected cell lines expressing wild-type and mutant EGFRs was performed using the II3-dependent murine hemopoietic lineage BaF/3 (Walker et al, 1998, Growth Factors 16, 53-67). Expression vectors containing the appropriate EGFR constructs were transfected individually by electroporation using a Gene Pulser (BioRad) according to manufacturer's instructions. Neomycin-resistant pools were generated by selection in G 418, and cloned by limiting dilution to obtain stable cell lines.

M 2-EGFR E 21A [4] = biological target: T2, M 2-EGFR E 21A; test: Scatchard plot (B/F specific against Bound) of 125I-EGF binding to BaF/3 cells expressing E21A EGFR, cold ligand titration, fitted with Radlig; second (low affinity) of two sites

Kd [1]: 0.039 nM
Kd [2]: 1.1 nM
Kd (M 2-EGFR E 21A [3]): 0.045 nM
Kd (M 2-EGFR E 21A [4]): 1.1 nM
B1: iodinated murine EGF (ligand, UniProt P01132 977-1029, looked up)
chain: NSYPGCPSSYDGYCLNGGVCMHIESLDSYTCNCVIGYSGDRCQTRDLRWWELR
modifications: 125I-iodinated (site not stated)
notes: mature; Unlabelled EGF was used for the cold titration
